Results as given in ChEMBL document CHEMBL1155874, “Carbonic anhydrase activators: Activation of the human cytosolic isozyme III and membrane-associated isoform IV with amino acids and amines” (Bioorg Med Chem Lett, 2008).

Columns and labels:
[1] = substrate: N[C@@H](Cc1c[nH]cn1)C(=O)O; test: (§1) Activity of human recombinant CA3 at 10 uM stopped-flow CO2 hydration method
[2] = substrate: N[C@H](Cc1c[nH]cn1)C(=O)O; test: as §1
[3] = substrate: N[C@@H](Cc1c[nH]cn1)C(=O)O; test: (§2) Activity of human recombinant truncated CA4 at 10 uM stopped-flow CO2 hydration method
[4] = substrate: N[C@H](Cc1c[nH]cn1)C(=O)O; test: as §2

B1: Carbonic anhydrase 3 (Homo sapiens), P07451 (protein)
chain: MAKEWGYASHNGPDHWHELFPNAKGENQSPVELHTKDIRHDPSLQPWSVSYDGGSAKTILNNGKTCRVVFDDTYDRSMLRGGPLPGPYRLRQFHLHWGSSDDHGSEHTVDGVKYAAELHLVHWNPKYNTFKEALKQRDGIAVIGIFLKIGHENGEFQIFLDALDKIKTKGKEAPFTKFDPSCLFPACRDYWTYQGSFTTPPCEECIVWLLLKEPMTVSSDQMAKLRSLLSSAENEPPVPLVSNWRPPQPINNRVVRASFK
kcat [1]: 1.8 ×10⁴ /s | kcat [2]: 16.9 ×10⁴ /s

B2: Carbonic anhydrase 4 (Homo sapiens), P22748 (protein)
chain: MRMLLALLALSAARPSASAESHWCYEVQAESSNYPCLVPVKWGGNCQKDRQSPINIVTTKAKVDKKLGRFFFSGYDKKQTWTVQNNGHSVMMLLENKASISGGGLPAPYQAKQLHLHWSDLPYKGSEHSLDGEHFAMEMHIVHEKEKGTSRNVKEAQDPEDEIAVLAFLVEAGTQVNEGFQPLVEALSNIPKPEMSTTMAESSLLDLLPKEEKLRHYFRYLGSLTTPTCDEKVVWTVFREPIQLHREQILAFSQKLYYDKEQTVSMKDNVRPLQQLGQRTVIKSGAPGRPLPWALPALLGPMLACLLAGFLR
kcat [3]: 4.3 ×10⁶ /s | kcat [4]: 3.8 ×10⁶ /s
